# PMC9278863, “The two-domain elevator-type mechanism of zinc-transporting ZIP proteins” (Science Advances, 2022)
# B1: ZIP from Bordetella bronchiseptica (BbZIP), wild type (natural protein, UniProt A0A0H3LM39 1-309, looked up)
# chain: MNQPSSLAADLRGAWHAQAQSHPLITLGLAASAAGVVLLLVAGIVNALTGENRVHVGYAVLGGAAGFAATALGALMALGLRAISARTQDAMLGFAAGMMLAASAFSLILPGLDAAGTIVGPGPAAAAVVALGLGLGVLLMLGLDYFTPHEHERTGHQGPEAARVNRVWLFVLTIILHNLPEGMAIGVSFATGDLRIGLPLTSAIAIQDVPEGLAVALALRAVGLPIGRAVLVAVASGLMEPLGALVGVGISSGFALAYPISMGLAAGAMIFVVSHEVIPETHRNGHETTATVGLMAGFALMMFLDTALG
# notes: density seen for residues 21-145, 165-279, 285-309 (chain A) and 18-77, 84-145, 166-219, 225-307 (chain B) of the metal-free structure; also called Zrt/Irt-like protein; WT; source: E. coli C43(DE3), purified (DDM solubilisation, HisTrap IMAC, SEC)
# Target: the molecule itself
# Assay: crystal structure; metal-free BbZIP crystallised in lipidic cubic phase (monoolein), 100 mM NaOAc-HOAc pH 4.5, LiSO4, PEG400, 20°C; two molecules in the asymmetric unit; parallel dimers seen in the crystal packing
protein,measurement,value
B1,binding result,binds
